What was measured:
Assay in all cases: EMSA; EC50; 10 mM KH2PO4, 100 mM NaCl, 0.01% IGEPAL, 5 nM Cy5 DNA, 30 min at 37 C; pH not stated; 8% gel in 1x TBE at 4 C
Settings in all cases: protein: recombinant; tags: N-terminal His6 (pET-28a NdeI-XhoI); chain copies: 2; label: 5' Cy5 on forward strand; blunt
Banf1 H7Y = target: T1, Banf1 H7Y (Homo sapiens, UniProt O75531 1-89, H7Y)
T1 sequence: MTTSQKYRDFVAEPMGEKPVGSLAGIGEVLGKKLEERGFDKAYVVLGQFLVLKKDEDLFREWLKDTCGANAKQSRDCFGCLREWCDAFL

Banf1 R75W = target: T2, Banf1 R75W (Homo sapiens, UniProt O75531 1-89, R75W)
T2 sequence: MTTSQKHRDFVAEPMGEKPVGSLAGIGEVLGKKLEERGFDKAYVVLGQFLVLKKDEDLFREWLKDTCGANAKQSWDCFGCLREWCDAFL

Banf1 N70T = target: T3, Banf1 N70T (Homo sapiens, UniProt O75531 1-89, N70T)
T3 sequence: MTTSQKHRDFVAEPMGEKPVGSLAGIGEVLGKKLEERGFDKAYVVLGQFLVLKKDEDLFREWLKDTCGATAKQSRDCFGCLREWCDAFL

B1: Cy5 40 bp dsDNA (dsDNA)
DNA 1: AGGAGCGCCAGACCCACCAAGAGCCCTCTATCGGTTGGGA
DNA 2: TCCCAACCGATAGAGGGCTCTTGGTGGGTCTGGCGCTCCT
apparent K (half saturation) (Banf1 H7Y): 26.1 ± 5.02 nM
apparent K (half saturation) (Banf1 R75W): 27.8 ± 3.17 nM
apparent K (half saturation) (Banf1 N70T): 34.9 ± 4.38 nM
